The values that follow come from doi:10.1101/2025.06.23.660979.

The stoichiometry N is a count of units in the complex or per binding partner.

Test [1] has as its target BcLmuA K59A, nuclease-dead BcLmuA of the BcLmuA(K59A)B complex (Bacillus cellulasensis NIO-1130). Briefly: cryo-EM structure.
The target of test [2] is VcLmuA, LmuA of the type II Lamassu system from Vibrio cholerae O1 El (Vibrio cholerae O1 El). Briefly: cryo-EM structure.
Test [3] shares this target. Briefly: SEC-MALS. (Size exclusion chromatography separates by hydrodynamic size, large species first.)

Consider “BcLmuA K59A, nuclease-dead BcLmuA of the BcLmuA(K59A)B complex (natural protein)”, for which the stoichiometry N in test [1] was determined as 4.

Turning to “VcLmuA, LmuA of the type II Lamassu system from Vibrio cholerae O1 El (natural protein)”, the stoichiometry N in test [2] is 4.

Take “VcLmuC, LmuC of the type II Lamassu system from Vibrio cholerae O1 El (natural protein)”: the stoichiometry N (LmuC per LmuA) in test [3] was determined as 1. In addition, in test [2], the stoichiometry N (VcLmuC per VcLmuA) came to 1.
